Measurements published in patent US20110166331A1 (Amgen, published 2011).

B1: AMH22/AML22 (antibody, IgG2, V domains shown)
VH: QVQLVQSGAEVKKPGASVKVSCKASGYTFTRYGISWVRQAPGQGLEWMGWISAYSGNTNYAQKLQGRVTMTTDTSTSTAYMELRSLRSDDTAVYYCARRQLYFDYWGQGTLVTVSS
VL: EIVMTQSPATLSVSPGERVTLSCRASQSVSSNLAWFQQKPGQAPRPLIYDASTRAAGIPARFSGSGSGTDFTLTISSLQSEDFAVYYCQQYDNWPLTFGGGTKVEIK
notes: also called AM-22
B2: AMH14/AML14 (antibody, IgG2, V domains shown)
VH: QVQLVQSGAEVKKPGASVKVSCKASGYTFTRYGISWVRQAPGQGLEWMGWISTYSGNTNYAQKLQGRVTMTTDTSTSTAYMELRSLRSDDTAVYYCARRQLYFDYWGQGTLVTVSS
VL: EIVMTQSPATLSVSPGERATLSCRASQSVSSNLAWFQQKPGQAPRPLIYDASTRATGVPARFSGSGSGTDFTLTISSLQSEDFAVYYCQQYDNWPLTFGGGTKVEIK
notes: Fully human mAb from IgG2 XenoMouse mice; also called AM-14
B3: AMH18/AML18 (antibody, IgG2, V domains shown)
VH: QVQLVQSGAEVKKPGASVKVSCKASGYSFTDYYMHWVRQAPGQGLEWMGWMHPNSGGTDLAQRFQGRVTMTRDTSISTAYMELSRLRSDDTAVYYCARGGYCSTLSCSFYWYFDLWGRGTLVTVSS
VL: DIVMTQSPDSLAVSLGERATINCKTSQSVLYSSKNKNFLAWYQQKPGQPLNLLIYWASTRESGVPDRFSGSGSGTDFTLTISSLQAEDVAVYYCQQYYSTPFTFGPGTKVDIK
notes: also called AM-18
B4: AMH21/AML21 (antibody, IgG2, V domains shown)
VH: EVQLVESGGGSVQPGGSLRLSCAASGFTFSSYSMNWVRQAPGKGLEWVSIISSRSSIIHYADSVKGRFTISRDNAKNSLYLQMNSLRDEDTAVYYCARPKVGGGMDVWGQGTTVTVSS
VL: DIQMTQSPSSLSASVGDRVTITCRASQGISNYLAWYQQKPGKFPELLIYAASTLQSGVPSRFSGSGSGTDFTLTISSLQPEDVATYYCQKYNRAPFTFGPGTKVDIK
notes: also called AM-21
B5: AMH11/AML11 (antibody, IgG2, V domains shown)
VH: QVQLVESGGGVVQPGRSLRLSCATSGITFSSYGMHWVRQAPGKGLEWVAVIWYDGSNKYYADSVKGRFTISRDNSKNTLYLQMNSLRAEDTAVYYCARDTKDYWGQGTLVTVSS
VL: EIVMTQSPATLSVSPGERATLSCRASQSVSSNLAWYQQKPGQAPRLLIYGASTRAAGIPARFSGGGSGTAFTLTISNLQSEDFAVYYCQHYINWPKWTFGQGTKVDIK
notes: also called AM-11
B6: AMH5/AML5 (antibody, IgG2, V domains shown)
VH: QVQLQESGPGLVKPSETLPLTCTVSGGSIRSYYWSWIRQPAGKGLEWIGRIYRSGNTIYNPSLKSRVTMSIDTSKNQFSLTLSSVTAADTAVYYCARENYSESSGLYYYYGMDVWGQGTTVTVSS
VL: DIQMTQSPSSLSASVGDRVTITCRASQGIRNDLGWYQQKPGKAPKRLIYAASSFQSGVPSRFSGSGSGTGFTLTISSLQPEDFATYYCLQHNSYPPTFGQGTKVEIK
notes: IgG2 XenoMouse; also called AM-5
B7: AMH1/AML1 (antibody, V domains shown)
VH: QVQLQESGPGLVKPSETLSLTCTVSGGSISNYYWNWIRQSPGKGLEWIGDIYYSGSTNYNPSLKSRVTISVDTSKNQFSLKLSSVTTADTAVYYCARDGELANYYGSGSYQFYYYYGMDVWGQGTTVTVSS
VL: DILMTQSPSSLSASVGDRVTITCRASQGIRNDLGWYQQKPGKAPKRLIYAASSLQSGVPSRFSGSGSGTEFTLTISSLQPEDFATYYCLQHNSNPFTFGPGTKVDIK
notes: also called AM-1
B8: AMH13/AML13 (antibody, IgG2, V domains shown)
VH: QVQLVESGGGVVQPGRSLRLSCAASGFTFSSYGMQWVRQAPGKGLEWVAVIWYDGNKKYYADSVKGRFTISRDNSKNTLYLQMNSLRAEDTAVYYCARGRVRDYYYGMDVWGQGTTVTVSS
VL: DIVMTQTPLSLSVTPGQPASIACKSSQSLLHSDGKTYLYWYLQKPGQPPQLLIYEVSTRFSGVPDRFSGSGSGTDFTLKISRVEAEDVGVFYCMQSIQLPLTFGGGTKVEIK
notes: also called AM-13
B9: AMH17/AML17 (antibody, V domains shown)
VH: QVQLVQSGAEVKKPGAAVKVSCKATGYTLTSYGISWVRQAPGQGLEWMGWISAYSGNTKYAQKLQGRVTMTTDTSTSTAYMELRSLRSDDTAVYYCARKQLVFDYWGQGTLVTVSS
VL: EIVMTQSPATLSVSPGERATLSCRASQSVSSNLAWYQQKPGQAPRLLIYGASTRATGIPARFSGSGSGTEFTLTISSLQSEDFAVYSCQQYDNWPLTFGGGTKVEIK
notes: also called AM-17
B10: AMH12/AML12 (antibody, IgG2, V domains shown)
VH: QVQLVQSGAEVKKPGASVKVSCKASGYTLTSYGISWVRQAPGQGLEWMGWISTYKGNTNYAQKLQGRVTMTTDTSTSTAYMELRSLRSDDTAVYYCARKQLVFDYWGQGTLVTVSS
VL: EIVMTQSPATLSVSPGERATLSCRASQSISSSLAWYQQKPGQAPRLLIYGASTRATGIPARFSGSGSGTEFTLTISSLQSENFAVYYCQQYDNWPLTFGGGTKVEIK
notes: also called AM-12
B11: AMH16/AML16 (antibody, IgG2, V domains shown)
VH: QVQLVQSGAEVKKPGASVKVSCKASGYTFTSYGISWVRQAPGQGLEWMGWISAYNGNTKYAQKLQGRVTMTTDTSTSTVYMELRSLRSDDTAVYYCARKQLVFDYWGQGTLVTVSS
VL: EIVMTQSPATLSVSPGERATLSCRASQSISTSLAWYQQKPGQAPRLLIYGTSTRATGIPARFSGSGSGTEFTLTISSLQSEDFAVYFCQQYDIWPLTFGGGTKVEIK
notes: also called AM-16
B12: AMH15/AML15 (antibody, IgG2, V domains shown)
VH: QVQLVESGGGVVQPGRSLRLSCAASGFTFSSYGMQWVRQAPGKGLEWVAVIWYDGNKKYYADSVKGRFTISRDNSKNTLYLQMNSLRAEDTAVYYCARGRVRDYYYGMDVWGQGTTVTVSS
VL: EIVMTQSPATLSVSPGERVTLSCRASQSVSSNLAWFQQKPGQAPRPLIYDASTRAAGIPARFSGSGSGTDFTLTISSLQSEDFAVYYCQQYDNWPLTFGGGTKVEIK
notes: IgG2 XenoMouse; also called AM-15

Assays:
[1] = biological target: T1, cynomolgus IL-17RA on the cell surface (cynomolgus); test: FACS competition, non-clonal hybridoma supernatant vs biotin-huIL-17A (500 ng/ml) on cyno IL-17RA+ cells; lower = more inhibition
T1 construct: whole, on cells; also called CHO-cynoIL-17RA; cyno IL-17RA+ CHO cells

[2] = biological target: T1, cynomolgus IL-17RA on the cell surface; test: cell-based or functional assay
[3] = biological target: T1, cynomolgus IL-17RA on the cell surface; test: FACS competition, non-clonal hybridoma supernatant vs biotin-huIL-17A (500 ng/ml) on cyno IL-17RA+ CHO cells; lower = more inhibition
Experimental: The anti-IL-17RA antibodies were characterized. Non-clonal hybridoma supernatants were prepared in volumes of 1-2 mls (the Ig concentrations were not determined for these supernatants).

[4] = biological target: T2, D152R IL-17RA mutant (human, UniProt Q96F46 33-320); test: Bio-Plex titration on His-captured D152R IL-17RA mutant; signal as percent of maximum wild-type MFI
T2 construct: Arginine scan mutant of huIL-17RA-FLAG-polyHis; also called huIL-17RA-FLAG-polyHis D152R
Experimental: Twelve bead codes of pentaHis-coated beads (Qiagen, Valencia, Calif.; see www1.qiagen.com) were used to capture histidine-tagged protein.
To prepare the beads, 100 ul of wild-type IL-17RA and IL-17RA arginine mutant supernatants from transient expression culture were bound to penta-His-coated beads overnight at 4° C. or 2 hours at room temperature with vigorous shaking. The beads were washed as per the manufacturer's protocol and the 12 bead set was pooled and aliquoted into 2 or 3 columns of a 96-well filter plate (Millipore, Bellerica, Mass., product #MSBVN1250) for duplicate or triplicate assay points, respectively. 100 ul anti-IL-17RA antibodies in 4-fold dilutions were added to the wells, incubated for 1 hour at room temperature, and washed. […] Beads were resuspended in 1% BSA, shaken for 3 minutes, and read on the Bio-Plex workstation. Antibody binding to IL-17RA arginine mutant protein was compared to antibody binding to the human IL-17RA wild-type from the same pool. A titration of antibody over approximately a 5 log scale was performed. Median Fluorescence Intensity (MFI) of IL-17RA arginine mutant proteins was graphed as a percent of maximum wild-type human IL-17RA signal.

[5] = biological target: T1, cynomolgus IL-17RA on the cell surface; test: FACS competition, non-clonal hybridoma supernatant vs biotin-huIL-17A (500 ng/ml) on cynomolgus IL-17RA+ CHO cells; lower = more inhibition
Experimental: Non-clonal hybridoma supernatants were prepared in volumes of 1-2 mls (the Ig concentrations were not determined for these supernatants). […] Anti-IL-17RA non-clonal hybridomas were selected for sub-cloning based on their performance in the CHO-IL-17RA FACS assay and HFF bioassay.

T2 sequence (Q96F46 other isoform, or with tags, fused parts or gaps D152R D152R limits assumed): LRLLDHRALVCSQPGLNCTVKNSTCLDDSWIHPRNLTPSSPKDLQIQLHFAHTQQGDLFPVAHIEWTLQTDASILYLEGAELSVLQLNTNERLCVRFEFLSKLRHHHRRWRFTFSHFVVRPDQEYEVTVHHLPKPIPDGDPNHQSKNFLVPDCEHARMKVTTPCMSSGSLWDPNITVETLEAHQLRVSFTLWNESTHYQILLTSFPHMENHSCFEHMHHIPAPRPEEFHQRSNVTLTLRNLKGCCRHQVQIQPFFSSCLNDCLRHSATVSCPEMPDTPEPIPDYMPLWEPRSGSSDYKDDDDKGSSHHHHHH

Binder	MFI [1]	MFI [5]	further results
B1	18	–	–
B2	–	–	IC50, cynomolgous IL-17A-induced IL-6 production from JTC-12 cells [2]: ~1.2 nM; MFI [3]: 10
B3	–	–	EC50 (read off the curve) [4]: ~0.08 nM
B4	–	–	MFI [3]: 6
B5	9	–	–
B6	9	–	–
B7	11	–	–
B8	–	6	–
B9	–	8	–
B10	–	6	–
B11	–	6	–
B12	–	–	MFI [3]: 6
